Data reported in publication PMC8863855.

Target: CD19-Fc (CD19-IgG1 Fc fusion protein) (UniProt P15391)
Test: flow cytometry on cells
Conditions: for response (% Normalized Binding): n=3 independent donor replicates, untransduced background subtracted, normalized for % CAR-expressing T-cells, read off a plot; for response (% of cells in CD19-Fc binding gate): one representative example, untransduced 2%, not normalized, CD19-Fc concentration not stated for this panel, parent: 46
[1] = CD19-Fc 1.0µg/mL, parent: est. 73
[2] = CD19-Fc 0.5µg/mL, parent: est. 65

Substance	response (% Normalized Binding) [1]	response (% of cells in CD19-Fc binding gate) (myc+ 49% (parent F-2 myc+ 43%))	response (% of cells in CD19-Fc binding gate) (myc+ 47% (parent F-2 myc+ 43%))	response (% Normalized Binding) [2]	response (% of cells in CD19-Fc binding gate) (myc+ 43% (parent F-2 myc+ 43%))	response (% of cells in CD19-Fc binding gate) (myc+ 78% (parent F-2 myc+ 43%))	response (% of cells in CD19-Fc binding gate) (myc+ 46% (parent F-2 myc+ 43%))
F-2 second generation (CD28+CD3ζ) CAR with the unmodified FMC63 scFv G01: VH CDR3 …>… (G>A at CDR3 position 5)	4.4	2					
F-2 second generation (CD28+CD3ζ) CAR with the unmodified FMC63 scFv G02: VH CDR3 …>… (G>A at CDR3 position 6)	5.6		2				
F-2 second generation (CD28+CD3ζ) CAR with the unmodified FMC63 scFv Y03: VH CDR3 …>… (Y>A at CDR3 position 4)	8.6			1.2	4		
F-2 second generation (CD28+CD3ζ) CAR with the unmodified FMC63 scFv Y04: VH CDR3 …>… (Y>A at CDR3 position 8)	65			41		28	
F-2 second generation (CD28+CD3ζ) CAR with the unmodified FMC63 scFv Y05: VH CDR3 …>… (Y>A at CDR3 position 12)	100			70			64
